According to PMC6975171, “Deep sequencing of mitochondrial DNA and characterization of a novel POLG mutation in a patient with arPEO”:

Assays:
[1] = biological target: POLγA F197S;POLγB (Homo sapiens?;Homo sapiens?, UniProt P54098;Q9UHN1 26-1239;25-485, F197S|); test: EMSA; 0.3 mM ddGTP, 3 mM dCTP; 10 fmol DNA in 15 µL; 25 mM Tris-HCl pH 7.8, 1 mM DTT, 0.1 mg/mL BSA, 10% glycerol, 0.3 mM ddGTP, 3 mM dCTP, no added Mg2+ stated; 10 min at ambient temperature; 6% native PAGE in 0.5x TBE; conditions: protein: recombinant;recombinant; tags: 6xHis;6xHis; copies: 1;2; label: 32P 5' end of the 21-nt primer (S1); 21 bp duplex, 5' overhang 15 nt on S2 (template strand), recessed primer 3' end
POLγA F197S;POLγB, sequence (P54098 26-1239 F197S, chain 1 of 2): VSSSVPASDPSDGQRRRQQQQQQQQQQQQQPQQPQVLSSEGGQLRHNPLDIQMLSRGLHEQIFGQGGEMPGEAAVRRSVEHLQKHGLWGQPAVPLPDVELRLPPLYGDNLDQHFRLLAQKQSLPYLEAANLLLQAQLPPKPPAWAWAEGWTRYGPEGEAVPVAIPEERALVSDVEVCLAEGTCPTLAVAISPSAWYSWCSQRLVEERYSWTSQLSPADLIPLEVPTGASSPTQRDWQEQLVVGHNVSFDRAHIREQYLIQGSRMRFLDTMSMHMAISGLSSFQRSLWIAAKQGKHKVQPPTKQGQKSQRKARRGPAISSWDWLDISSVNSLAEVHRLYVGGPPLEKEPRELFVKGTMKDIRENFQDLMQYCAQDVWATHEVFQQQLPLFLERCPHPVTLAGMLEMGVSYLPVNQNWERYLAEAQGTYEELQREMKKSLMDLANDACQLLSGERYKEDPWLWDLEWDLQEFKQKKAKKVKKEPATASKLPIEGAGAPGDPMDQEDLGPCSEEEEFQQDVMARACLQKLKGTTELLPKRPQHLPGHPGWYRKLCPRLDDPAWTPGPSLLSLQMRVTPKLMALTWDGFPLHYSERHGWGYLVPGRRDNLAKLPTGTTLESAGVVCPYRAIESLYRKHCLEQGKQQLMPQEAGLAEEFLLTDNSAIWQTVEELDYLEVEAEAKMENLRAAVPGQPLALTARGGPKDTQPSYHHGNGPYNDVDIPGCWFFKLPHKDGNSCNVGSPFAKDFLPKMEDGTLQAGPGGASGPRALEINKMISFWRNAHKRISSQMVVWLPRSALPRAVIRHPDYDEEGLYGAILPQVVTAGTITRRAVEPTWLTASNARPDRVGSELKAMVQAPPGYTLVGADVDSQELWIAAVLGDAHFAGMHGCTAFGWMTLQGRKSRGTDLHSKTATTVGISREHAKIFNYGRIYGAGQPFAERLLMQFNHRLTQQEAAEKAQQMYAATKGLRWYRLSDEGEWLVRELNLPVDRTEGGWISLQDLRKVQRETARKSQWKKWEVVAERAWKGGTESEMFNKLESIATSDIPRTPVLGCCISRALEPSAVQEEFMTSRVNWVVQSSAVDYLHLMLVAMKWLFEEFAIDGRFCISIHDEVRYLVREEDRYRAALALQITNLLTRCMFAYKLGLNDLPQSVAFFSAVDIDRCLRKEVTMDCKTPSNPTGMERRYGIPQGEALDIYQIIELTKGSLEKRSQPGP
POLγA F197S;POLγB, sequence (Q9UHN1 25-485, chain 2 of 2): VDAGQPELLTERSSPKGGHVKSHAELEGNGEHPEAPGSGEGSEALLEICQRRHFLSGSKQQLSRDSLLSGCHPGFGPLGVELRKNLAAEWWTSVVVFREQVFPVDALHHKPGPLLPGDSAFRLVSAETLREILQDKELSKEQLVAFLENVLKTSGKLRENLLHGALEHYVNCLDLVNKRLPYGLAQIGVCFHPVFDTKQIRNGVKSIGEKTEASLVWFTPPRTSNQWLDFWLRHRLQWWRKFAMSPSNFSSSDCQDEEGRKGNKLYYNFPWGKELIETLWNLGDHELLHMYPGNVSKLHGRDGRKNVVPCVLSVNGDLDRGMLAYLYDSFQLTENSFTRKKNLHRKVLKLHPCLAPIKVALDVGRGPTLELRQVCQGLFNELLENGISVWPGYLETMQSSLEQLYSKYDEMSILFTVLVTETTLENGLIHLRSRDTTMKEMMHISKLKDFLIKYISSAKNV

[2] = biological target: POLγA WT;POLγB (Homo sapiens?;Homo sapiens?, UniProt P54098;Q9UHN1 26-1239;25-485, |); test: as above; conditions: protein: recombinant;recombinant; tags: 6xHis;6xHis; copies: 1;2; label: 32P 5' end of the 21-nt primer (S1); 21 bp duplex, 5' overhang 15 nt on S2 (template strand), recessed primer 3' end
POLγA WT;POLγB, sequence (P54098 26-1239, chain 1 of 2): as the sequence (P54098 26-1239 F197S, chain 1 of 2) above, with S172F counted along it
POLγA WT;POLγB, sequence (Q9UHN1 25-485, chain 2 of 2): as the sequence (Q9UHN1 25-485, chain 2 of 2) above

B1: 21/36-nt primed template (dsDNA)
DNA 1: GCGGTCGAGTCTAGAGGAGCC
DNA 2: GACTACGTCTATCCGGGCTCCTCTAGACTCGACCGC
binding result [1]: binds
binding result [2]: binds
